# Laboratory results as given in US20140147444A1 (published 2014).
# T1: human OPGbp [143-317] (human, UniProt O14788 143-317)
# T1 construct: also called OPGL
# T1 sequence (looked up): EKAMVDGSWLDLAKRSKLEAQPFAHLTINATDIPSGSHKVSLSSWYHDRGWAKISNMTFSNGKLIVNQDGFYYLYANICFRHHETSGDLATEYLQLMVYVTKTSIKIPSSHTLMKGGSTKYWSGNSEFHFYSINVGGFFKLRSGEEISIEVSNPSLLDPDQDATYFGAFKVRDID
# Target: T1, human OPGbp [143-317]
# Experiment: SPR (BIAcore), immobilized OPGbp [143-317]
Binder,Kd,koff,kon
"“AT” antibody variant S96D (heavy chain CDR3) (antibody, name in Kabat numbering, V domains shown, not shown: human IgG1 CH1, hinge, CH2 and CH3) VH: QVQLVQSGAEVRKPGASVKVSCKASGYDFSNYAIHWVRQAPGQRLEWMGWINAGNGNTKFSQKFQGRITVTRDTAASTAYMELRSLRSEDTAVYYCARDDSNMVRGIIIAYYFDYWGQGTLVTVSS VL: EIVMTQSPSSLSASVGDRVTITCRASQSISRYLNWYQLKPGKAPRLLIYGASSLQSGVPSRFSGSGSGAEFTLTISSLQPEDIATYYCQHTRAFGQGTKVEIKR",0.51 nM,0.00118 s⁻¹,2.28e+06 M⁻¹ s⁻¹
"“AT” antibody variant S96E (heavy chain CDR3) (antibody, name in Kabat numbering, V domains shown, not shown: human IgG1 CH1, hinge, CH2 and CH3) VH: QVQLVQSGAEVRKPGASVKVSCKASGYDFSNYAIHWVRQAPGQRLEWMGWINAGNGNTKFSQKFQGRITVTRDTAASTAYMELRSLRSEDTAVYYCARDESNMVRGIIIAYYFDYWGQGTLVTVSS VL: EIVMTQSPSSLSASVGDRVTITCRASQSISRYLNWYQLKPGKAPRLLIYGASSLQSGVPSRFSGSGSGAEFTLTISSLQPEDIATYYCQHTRAFGQGTKVEIKR",0.35 nM,0.000901 s⁻¹,2.54e+06 M⁻¹ s⁻¹
"“AT” antibody variant S96K (heavy chain CDR3) (antibody, name in Kabat numbering, V domains shown, not shown: human IgG1 CH1, hinge, CH2 and CH3) VH: QVQLVQSGAEVRKPGASVKVSCKASGYDFSNYAIHWVRQAPGQRLEWMGWINAGNGNTKFSQKFQGRITVTRDTAASTAYMELRSLRSEDTAVYYCARDKSNMVRGIIIAYYFDYWGQGTLVTVSS VL: EIVMTQSPSSLSASVGDRVTITCRASQSISRYLNWYQLKPGKAPRLLIYGASSLQSGVPSRFSGSGSGAEFTLTISSLQPEDIATYYCQHTRAFGQGTKVEIKR",0.31 nM,0.00141 s⁻¹,4.55e+06 M⁻¹ s⁻¹
"“AT” antibody variant S96H (heavy chain CDR3) (antibody, name in Kabat numbering, V domains shown, not shown: human IgG1 CH1, hinge, CH2 and CH3) VH: QVQLVQSGAEVRKPGASVKVSCKASGYDFSNYAIHWVRQAPGQRLEWMGWINAGNGNTKFSQKFQGRITVTRDTAASTAYMELRSLRSEDTAVYYCARDHSNMVRGIIIAYYFDYWGQGTLVTVSS VL: EIVMTQSPSSLSASVGDRVTITCRASQSISRYLNWYQLKPGKAPRLLIYGASSLQSGVPSRFSGSGSGAEFTLTISSLQPEDIATYYCQHTRAFGQGTKVEIKR",1.86 nM,0.00764 s⁻¹,4.12e+06 M⁻¹ s⁻¹
"“AT” antibody variant S96G (heavy chain CDR3) (antibody, name in Kabat numbering, V domains shown, not shown: human IgG1 CH1, hinge, CH2 and CH3) VH: QVQLVQSGAEVRKPGASVKVSCKASGYDFSNYAIHWVRQAPGQRLEWMGWINAGNGNTKFSQKFQGRITVTRDTAASTAYMELRSLRSEDTAVYYCARDGSNMVRGIIIAYYFDYWGQGTLVTVSS VL: EIVMTQSPSSLSASVGDRVTITCRASQSISRYLNWYQLKPGKAPRLLIYGASSLQSGVPSRFSGSGSGAEFTLTISSLQPEDIATYYCQHTRAFGQGTKVEIKR",3.85 nM,0.015 s⁻¹,3.87e+06 M⁻¹ s⁻¹
"“AT” antibody variant S96I (heavy chain CDR3) (antibody, name in Kabat numbering, V domains shown, not shown: human IgG1 CH1, hinge, CH2 and CH3) VH: QVQLVQSGAEVRKPGASVKVSCKASGYDFSNYAIHWVRQAPGQRLEWMGWINAGNGNTKFSQKFQGRITVTRDTAASTAYMELRSLRSEDTAVYYCARDISNMVRGIIIAYYFDYWGQGTLVTVSS VL: EIVMTQSPSSLSASVGDRVTITCRASQSISRYLNWYQLKPGKAPRLLIYGASSLQSGVPSRFSGSGSGAEFTLTISSLQPEDIATYYCQHTRAFGQGTKVEIKR",1.56 nM,0.00466 s⁻¹,2.99e+06 M⁻¹ s⁻¹
"“AT” antibody variant S96F (heavy chain CDR3) (antibody, name in Kabat numbering, V domains shown, not shown: human IgG1 CH1, hinge, CH2 and CH3) VH: QVQLVQSGAEVRKPGASVKVSCKASGYDFSNYAIHWVRQAPGQRLEWMGWINAGNGNTKFSQKFQGRITVTRDTAASTAYMELRSLRSEDTAVYYCARDFSNMVRGIIIAYYFDYWGQGTLVTVSS VL: EIVMTQSPSSLSASVGDRVTITCRASQSISRYLNWYQLKPGKAPRLLIYGASSLQSGVPSRFSGSGSGAEFTLTISSLQPEDIATYYCQHTRAFGQGTKVEIKR",8.45 nM,0.00268 s⁻¹,317000 M⁻¹ s⁻¹

# Further lines, results first:
Kd,koff,kon,Binder
2.43 nM,0.0087 s⁻¹,3.57e+06 M⁻¹ s⁻¹,"“AT” antibody variant S96M (heavy chain CDR3) (antibody, name in Kabat numbering, V domains shown, not shown: human IgG1 CH1, hinge, CH2 and CH3) VH: QVQLVQSGAEVRKPGASVKVSCKASGYDFSNYAIHWVRQAPGQRLEWMGWINAGNGNTKFSQKFQGRITVTRDTAASTAYMELRSLRSEDTAVYYCARDMSNMVRGIIIAYYFDYWGQGTLVTVSS VL: EIVMTQSPSSLSASVGDRVTITCRASQSISRYLNWYQLKPGKAPRLLIYGASSLQSGVPSRFSGSGSGAEFTLTISSLQPEDIATYYCQHTRAFGQGTKVEIKR"
0.53 nM,0.00167 s⁻¹,3.14e+06 M⁻¹ s⁻¹,"“AT” antibody variant S96T (heavy chain CDR3) (antibody, name in Kabat numbering, V domains shown, not shown: human IgG1 CH1, hinge, CH2 and CH3) VH: QVQLVQSGAEVRKPGASVKVSCKASGYDFSNYAIHWVRQAPGQRLEWMGWINAGNGNTKFSQKFQGRITVTRDTAASTAYMELRSLRSEDTAVYYCARDTSNMVRGIIIAYYFDYWGQGTLVTVSS VL: EIVMTQSPSSLSASVGDRVTITCRASQSISRYLNWYQLKPGKAPRLLIYGASSLQSGVPSRFSGSGSGAEFTLTISSLQPEDIATYYCQHTRAFGQGTKVEIKR"
3.09 nM,0.00359 s⁻¹,1.16e+06 M⁻¹ s⁻¹,"“AT” antibody variant S96Q (heavy chain CDR3) (antibody, name in Kabat numbering, V domains shown, not shown: human IgG1 CH1, hinge, CH2 and CH3) VH: QVQLVQSGAEVRKPGASVKVSCKASGYDFSNYAIHWVRQAPGQRLEWMGWINAGNGNTKFSQKFQGRITVTRDTAASTAYMELRSLRSEDTAVYYCARDQSNMVRGIIIAYYFDYWGQGTLVTVSS VL: EIVMTQSPSSLSASVGDRVTITCRASQSISRYLNWYQLKPGKAPRLLIYGASSLQSGVPSRFSGSGSGAEFTLTISSLQPEDIATYYCQHTRAFGQGTKVEIKR"
0.3 nM,0.00175 s⁻¹,5.84e+06 M⁻¹ s⁻¹,"“AT” antibody variant S96L (heavy chain CDR3) (antibody, name in Kabat numbering, V domains shown, not shown: human IgG1 CH1, hinge, CH2 and CH3) VH: QVQLVQSGAEVRKPGASVKVSCKASGYDFSNYAIHWVRQAPGQRLEWMGWINAGNGNTKFSQKFQGRITVTRDTAASTAYMELRSLRSEDTAVYYCARDLSNMVRGIIIAYYFDYWGQGTLVTVSS VL: EIVMTQSPSSLSASVGDRVTITCRASQSISRYLNWYQLKPGKAPRLLIYGASSLQSGVPSRFSGSGSGAEFTLTISSLQPEDIATYYCQHTRAFGQGTKVEIKR"
1.29 nM,0.00188 s⁻¹,1.45e+06 M⁻¹ s⁻¹,"“AT” antibody variant S96P (heavy chain CDR3) (antibody, name in Kabat numbering, V domains shown, not shown: human IgG1 CH1, hinge, CH2 and CH3) VH: QVQLVQSGAEVRKPGASVKVSCKASGYDFSNYAIHWVRQAPGQRLEWMGWINAGNGNTKFSQKFQGRITVTRDTAASTAYMELRSLRSEDTAVYYCARDPSNMVRGIIIAYYFDYWGQGTLVTVSS VL: EIVMTQSPSSLSASVGDRVTITCRASQSISRYLNWYQLKPGKAPRLLIYGASSLQSGVPSRFSGSGSGAEFTLTISSLQPEDIATYYCQHTRAFGQGTKVEIKR"
1.53 nM,0.00215 s⁻¹,1.4e+06 M⁻¹ s⁻¹,"“AT” antibody variant S96N (heavy chain CDR3) (antibody, name in Kabat numbering, V domains shown, not shown: human IgG1 CH1, hinge, CH2 and CH3) VH: QVQLVQSGAEVRKPGASVKVSCKASGYDFSNYAIHWVRQAPGQRLEWMGWINAGNGNTKFSQKFQGRITVTRDTAASTAYMELRSLRSEDTAVYYCARDNSNMVRGIIIAYYFDYWGQGTLVTVSS VL: EIVMTQSPSSLSASVGDRVTITCRASQSISRYLNWYQLKPGKAPRLLIYGASSLQSGVPSRFSGSGSGAEFTLTISSLQPEDIATYYCQHTRAFGQGTKVEIKR"
0.38 nM,0.00262 s⁻¹,6.97e+06 M⁻¹ s⁻¹,"“AT” antibody variant S96R (heavy chain CDR3) (antibody, name in Kabat numbering, V domains shown, not shown: human IgG1 CH1, hinge, CH2 and CH3) VH: QVQLVQSGAEVRKPGASVKVSCKASGYDFSNYAIHWVRQAPGQRLEWMGWINAGNGNTKFSQKFQGRITVTRDTAASTAYMELRSLRSEDTAVYYCARDRSNMVRGIIIAYYFDYWGQGTLVTVSS VL: EIVMTQSPSSLSASVGDRVTITCRASQSISRYLNWYQLKPGKAPRLLIYGASSLQSGVPSRFSGSGSGAEFTLTISSLQPEDIATYYCQHTRAFGQGTKVEIKR"
